Results from patent US20070105771A1 (Y S THERAPEUTICS, published 2007).
Positions count from the first letter of the chain named.

Key:
[1] = target: T1, human CD26-derived 13 mer peptide 67 (human); assay: peptide microarray
T1 construct: also called LPSYRITWTGKED
T1 peptide: LPSYRITWTGKED
Method: (§1) The overnight incubation was followed by three washings with each of PBS buffer pH 7.5 and water. The microarrays were then scanned using ArrayWorx-Microarray Scanner.
(§2) The SPOT recognition software package ArrayPro was used for data analysis. The mean of signal intensities from 3 identical subarrays on each microarray image was used for data evaluation.

[2] = target: T2, human CD26-derived 13 mer peptide 47 (human); assay: peptide microarray
T2 peptide: RQLITEERIPNNT
Method: as §1, §2

[3] = target: T3, human CD26-derived 13 mer peptide 90 (human); assay: peptide microarray
T3 peptide: AQFNDTEVPLIEY
Method: as §1, §2

[4] = target: T4, human CD26-derived 13 mer peptide 88 (human); assay: peptide microarray
T4 peptide: FLAYAQFNDTEVP
Method: as §1, §2

[5] = target: T5, human CD26-derived 13 mer peptide 21 (human); assay: peptide microarray
T5 peptide: VFLENSTFDEFGH
Method: as §1, §2

[6] = target: T6, human CD26-derived 13 mer peptide 122 (human); assay: peptide microarray
T6 peptide: PASMLIGDHYLCD
Method: as §1, §2

[7] = target: T7, human CD26-derived 13 mer peptide 102 (human); assay: peptide microarray
T7 peptide: KTVRVPYPKAGAV
Method: as §1, §2

[8] = target: T8, human CD26-derived 13 mer peptide 71 (human); assay: peptide microarray
T8 peptide: TGKEDIIYNGITD
Method: as §1, §2

[9] = target: T9, human CD26-derived 13 mer peptide 103 (human); assay: peptide microarray
T9 peptide: VRVPYPKAGAVNP
Method: as §1, §2

[10] = target: T10, human CD26-derived 13 mer peptide 61 (human); assay: peptide microarray
T10 peptide: WNNDIYVKIEPNL
Method: as §1, §2

[11] = target: T11, human CD26-derived 13 mer peptide 87 (human); assay: peptide microarray
T11 peptide: GTFLAYAQFNDTE
Method: as §1, §2

[12] = target: T12, human CD26-derived 13 mer peptide 26 (human); assay: peptide microarray
T12 peptide: FGHSINDYSISPD
Method: as §1, §2

[13] = target: T13, human CD26-derived 13 mer peptide 28 (human); assay: peptide microarray
T13 peptide: INDYSISPDGQFI
Method: as §1, §2

[14] = target: T14, human CD26-derived 13 mer peptide 22 (human); assay: peptide microarray
T14 peptide: LENSTFDEFGHSI
Method: as §1, §2

[15] = target: T15, human CD26-derived 13 mer peptide 118 (human); assay: peptide microarray
T15 peptide: ATSIQITAPASML
Method: as §1, §2

[16] = target: T16, human CD26-derived 13 mer peptide 45 (human); assay: peptide microarray
T16 peptide: DLNKRQLITEERI
Method: as §1, §2

[17] = target: T17, human CD26-derived 13 mer peptide 15 (human); assay: peptide microarray
T17 peptide: ILVFNAEYGNSSV
Method: as §1, §2

[18] = target: T18, human CD26-derived 13 mer peptide 104 (human); assay: peptide microarray
T18 peptide: VPYPKAGAVNPTV
Method: as §1, §2

[19] = target: T19, human CD26-derived 13 mer peptide 24 (human); assay: peptide microarray
T19 peptide: TFDEFGHSINDYS
Method: as §1, §2

[20] = target: T20, human CD26-derived 13 mer peptide 111 (human); assay: peptide microarray
T20 peptide: FFVVNTDSLSSVT
Method: as §1, §2

[21] = target: T21, human CD26-derived 13 mer peptide 25 (human); assay: peptide microarray
T21 peptide: DEFGHSINDYSIS
Method: as §1, §2

[22] = target: T22, human CD26-derived 13 mer peptide 18 (human); assay: peptide microarray
T22 peptide: EYGNSSVFLENST
Method: as §1, §2

[23] = target: T23, human CD26-derived 13 mer peptide 110 (human); assay: peptide microarray
T23 peptide: VKFFVVNTDSLSS
Method: as §1, §2

[24] = target: T24, human CD26-derived 13 mer peptide 9 (human); assay: peptide microarray
T24 peptide: SDHEYLYKQENNI
Method: as §1, §2

[25] = target: T25, human CD26-derived 13 mer peptide 117 (human); assay: peptide microarray
T25 peptide: TNATSIQITAPAS
Method: as §1, §2

[26] = target: T26, human CD26-derived 13 mer peptide 10 (human); assay: peptide microarray
T26 peptide: HEYLYKQENNILV
Method: as §1, §2

[27] = target: T27, human CD26-derived 13 mer peptide 60 (human); assay: peptide microarray
T27 peptide: YVWNNDIYVKIEP
Method: as §1, §2

[28] = target: T28, human CD26-derived 13 mer peptide 112 (human); assay: peptide microarray
T28 peptide: VVNTDSLSSVTNA
Method: as §1, §2

[29] = target: T29, human CD26-derived 13 mer peptide 43 (human); assay: peptide microarray
T29 peptide: YDIYDLNKRQLIT
Method: as §1, §2

[30] = target: T30, human CD26-derived 13 mer peptide 46 (human); assay: peptide microarray
T30 construct: also called NKRQL1TEERIPN
T30 peptide: NKRQLITEERIPN
Method: as §1, §2

[31] = target: T31, human CD26-derived 13 mer peptide 119 (human); assay: peptide microarray
T31 peptide: SIQITAPASMLIG
Method: as §1, §2

[32] = target: T32, human CD26-derived 13 mer peptide 116 (human); assay: peptide microarray
T32 peptide: SVTNATSIQITAP
Method: as §1, §2

[33] = target: T33, human CD26-derived 13 mer peptide 96 (human); assay: peptide microarray
T33 peptide: YSFYSDESLQYPK
Method: as §1, §2

[34] = target: T34, human CD26-derived 13 mer peptide 62 (human); assay: peptide microarray
T34 peptide: NDIYVKIEPNLPS
Method: as §1, §2

[35] = target: T35, human CD26-derived 13 mer peptide 44 (human); assay: peptide microarray
T35 peptide: IYDLNKRQLITEE
Method: as §1, §2

[36] = target: T36, human CD26-derived 13 mer peptide 100 (human); assay: peptide microarray
T36 peptide: LQYPKTVRVPYPK
Method: as §1, §2

[37] = target: T37, human CD26-derived 13 mer peptide 23 (human); assay: peptide microarray
T37 peptide: NSTFDEFGHSIND
Method: as §1, §2

[38] = target: human CD26 on the cell surface (human, UniProt P27487 1-766); assay: cell-based or functional assay
human CD26 on the cell surface, sequence (P27487 whole entry): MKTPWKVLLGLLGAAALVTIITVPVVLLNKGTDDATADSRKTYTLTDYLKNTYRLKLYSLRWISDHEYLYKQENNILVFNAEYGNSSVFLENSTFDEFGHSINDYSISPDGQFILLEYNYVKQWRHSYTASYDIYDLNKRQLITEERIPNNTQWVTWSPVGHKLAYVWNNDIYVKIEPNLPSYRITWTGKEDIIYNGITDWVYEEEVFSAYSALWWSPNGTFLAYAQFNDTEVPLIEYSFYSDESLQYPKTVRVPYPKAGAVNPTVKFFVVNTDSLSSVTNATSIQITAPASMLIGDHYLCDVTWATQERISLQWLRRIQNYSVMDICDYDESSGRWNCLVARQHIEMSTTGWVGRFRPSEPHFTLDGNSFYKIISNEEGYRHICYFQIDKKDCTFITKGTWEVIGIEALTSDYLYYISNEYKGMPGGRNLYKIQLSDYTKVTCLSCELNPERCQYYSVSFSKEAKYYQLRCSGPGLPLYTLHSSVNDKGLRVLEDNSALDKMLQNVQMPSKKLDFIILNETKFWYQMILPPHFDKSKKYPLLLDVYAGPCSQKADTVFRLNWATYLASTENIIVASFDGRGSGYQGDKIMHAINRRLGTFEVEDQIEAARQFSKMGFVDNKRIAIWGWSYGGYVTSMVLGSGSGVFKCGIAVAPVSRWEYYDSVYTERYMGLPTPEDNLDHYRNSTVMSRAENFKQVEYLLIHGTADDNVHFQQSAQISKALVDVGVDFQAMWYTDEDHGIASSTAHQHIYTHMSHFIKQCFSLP

[39] = target: T38, Purified recombinant human CD26 (rhDipeptidyl peptidase IV), R&D Systems CAT #1180-SE (human, UniProt P27487 29-766); assay: SPR (Biacore), Fab
T38 construct: Bought recombinant protein; also called hu-CD26; soluble human CD26
T38 sequence (P27487 29-766 limits assumed): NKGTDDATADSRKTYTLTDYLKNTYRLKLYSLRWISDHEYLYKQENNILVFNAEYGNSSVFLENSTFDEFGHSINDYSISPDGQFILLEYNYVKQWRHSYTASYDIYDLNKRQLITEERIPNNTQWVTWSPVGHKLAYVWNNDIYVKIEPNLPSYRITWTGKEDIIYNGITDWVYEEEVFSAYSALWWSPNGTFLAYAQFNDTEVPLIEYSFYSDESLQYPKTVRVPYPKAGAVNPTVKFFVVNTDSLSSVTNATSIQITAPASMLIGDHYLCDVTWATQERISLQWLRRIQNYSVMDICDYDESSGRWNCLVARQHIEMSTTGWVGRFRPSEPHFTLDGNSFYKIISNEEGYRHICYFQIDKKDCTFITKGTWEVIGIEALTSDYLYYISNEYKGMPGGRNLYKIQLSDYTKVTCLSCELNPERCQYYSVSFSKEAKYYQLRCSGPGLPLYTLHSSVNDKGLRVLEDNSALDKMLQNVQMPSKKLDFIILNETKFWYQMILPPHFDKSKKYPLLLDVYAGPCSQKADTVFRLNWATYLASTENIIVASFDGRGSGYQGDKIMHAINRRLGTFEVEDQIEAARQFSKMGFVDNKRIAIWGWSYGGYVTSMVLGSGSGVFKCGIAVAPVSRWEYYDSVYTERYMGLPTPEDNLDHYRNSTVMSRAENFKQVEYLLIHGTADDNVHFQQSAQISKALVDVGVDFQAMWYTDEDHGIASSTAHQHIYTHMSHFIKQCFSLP

[40] = target: T38, Purified recombinant human CD26 …; assay: SPR (Biacore), Fab; remark: listed apart in the source
[41] = target: T38, Purified recombinant human CD26 …; assay: SPR (Biacore), CD26 preoccupied by the Fab; competitor 14D10 ascites
Source text: A specificity analysis of selected Fabs comprising pairs of variant VH and VL sequences was done. […] The analysis was done using Biacore® as described in Example 1.

[42] = target: T38, Purified recombinant human CD26 …; assay: SPR (Biacore)

B1: rhuMAb 412 (antibody, human IgG1, V domains shown)
VH: EVQLVQSGGGVKQPGETLRLTCTASGFSLTTYGVHWVRQAPGKGLEWVGVIWGDGRTDYDAAFMSRVTISKDTSKSTAYLQMNSLRAEDTAVYYCMRNRHDWFDYWGQGTTVTVSS
VL: EIEMTQSPSSLSVSAGERATISCSASQDIRNSLNWYQQKPGQAPRLLIYYSSNLHTGVPARFSGSGSGTDFTLTISRLEPEDVAIYYCQQSNKLPLTFGSGTKVEIKR
notes: X385 VH and X380 VL with human IgG1 and human kappa constant regions; also called X412
Mean Signal Value [1]: 0
Mean Signal Value [2]: 0
Mean Signal Value [3]: 0
Mean Signal Value [4]: 0
Mean Signal Value [5]: 0
Mean Signal Value [6]: 0
Mean Signal Value [7]: 0
Mean Signal Value [8]: 0
Mean Signal Value [9]: 0
Mean Signal Value [10]: 0
Mean Signal Value [11]: 0
Mean Signal Value [12]: 0
Mean Signal Value [13]: 0
Mean Signal Value [14]: 0
Mean Signal Value [15]: 0
Mean Signal Value [16]: 0
Mean Signal Value [17]: 0
Mean Signal Value [18]: 0
Mean Signal Value [19]: 0
Mean Signal Value [20]: 0
Mean Signal Value [21]: 0
Mean Signal Value [22]: 0
Mean Signal Value [23]: 0
Mean Signal Value [24]: 0
Mean Signal Value [25]: 0
Mean Signal Value [26]: 0
Mean Signal Value [27]: 0
Mean Signal Value [28]: 0
Mean Signal Value [29]: 0
Mean Signal Value [30]: 0
Mean Signal Value [31]: 0
Mean Signal Value [32]: 0
Mean Signal Value [33]: 0
Mean Signal Value [34]: 0
Mean Signal Value [35]: 0
Mean Signal Value [36]: 0
Mean Signal Value [37]: 0
percent inhibition, MTT assay, Jurkat CD26+ cells, 0.05 ug/ml [38]: 0.3%
percent inhibition, MTT assay, Jurkat CD26+ cells, 0.25 ug/ml [38]: 5.4%
percent inhibition, MTT assay, Jurkat CD26+ cells, 5 ug/ml [38]: 23.6%

B2: Fab X391 (X388 VH and X376 VL) (Fab, V domains shown)
VH: B1 VH with V11L, T21S, F27Y, V48M, A61S, A62S, M82L, M96T
VL: DILMTQSPSSLSASPGDRVTISCRASQDIRNNLNWYQQKPGQAPRLLIYYSSNLHSGVPDRFSGSGSGTDFTLTISRLEPEDFAAYYCQQSIKLPLTFGSGTKVEIK
notes: Fab made in E. coli
Kd [39]: 2.12 nM
Kd [40]: 2.12 nM
percent decrease in binding of 14D10 to CD26 [41]: ≥ 80%

B3: Fab X393 (X385 VH and X379 VL) (Fab, V domains shown)
VH: B1 VH
VL: DILLTQSPSSLSATPGERATITCRASQGIRNNLNWYQQKPGQAPRLLIYYSSNLQSGVPSRFSGSGSGTDFTLTISRLQPEDVAAYYCQQSIKLPFTFGSGTKVEIK
notes: Fab made in E. coli
Kd [39]: 0.33 nM
ratio of the Kd of CM03 Fab to the Kd of individual clone [39]: 4.94
Kd [40]: 0.33 nM
percent decrease in binding of 14D10 to CD26 [41]: ≥ 80%

B4: Fab X389 (X384 VH and X376 VL) (Fab, V domains shown)
VH: B1 VH with Q6E, G9A, E16G, A78V
VL: B2 VL
notes: Fab made in E. coli
Kd [39]: 0.38 nM
ratio of the Kd of CM03 Fab to the Kd of individual clone [39]: 4.29
Kd [40]: 0.38 nM
percent decrease in binding of 14D10 to CD26 [41]: ≥ 80%

B5: Fab X390 (X385 VH and X376 VL) (Fab, V domains shown)
VH: B1 VH
VL: B2 VL
notes: Fab made in E. coli
Kd [39]: 0.96 nM
ratio of the Kd of CM03 Fab to the Kd of individual clone [39]: 1.7
Kd [40]: 0.96 nM
percent decrease in binding of 14D10 to CD26 [41]: ≥ 80%

B6: Fab X392 (X384 VH and X379 VL) (Fab, V domains shown)
VH: B1 VH with Q6E, G9A, E16G, A78V
VL: B3 VL
notes: Fab made in E. coli
Kd [39]: 0.24 nM
ratio of the Kd of CM03 Fab to the Kd of individual clone [39]: 6.79
Kd [40]: 0.24 nM
percent decrease in binding of 14D10 to CD26 [41]: ≥ 80%

B7: Fab X396 (X385 VH and X380 VL) (Fab, V domains shown)
VH: B1 VH
VL: EIEMTQSPSSLSVSAGERATISCSASQDIRNSLNWYQQKPGQAPRLLIYYSSNLHTGVPARFSGSGSGTDFTLTISRLEPEDVAIYYCQQSNKLPLTFGSGTKVEIK
notes: Fab made in E. coli
Kd [39]: 2.53 nM
Kd [40]: 2.53 nM
percent decrease in binding of 14D10 to CD26 [41]: ≥ 80%

B8: Fab X395 (X384 VH and X380 VL) (Fab, V domains shown)
VH: B1 VH with Q6E, G9A, E16G, A78V
VL: B7 VL
notes: Fab made in E. coli
Kd [39]: 3.26 nM
ratio of the Kd of CM03 Fab to the Kd of individual clone [39]: 0.5
Kd [40]: 3.26 nM
percent decrease in binding of 14D10 to CD26 [41]: ≥ 80%

B9: mouse monoclonal antibody CM03 (14D10) (antibody, V domains shown)
VH: QVKLQESGPGLVQPSQTLSITCTVSGFSLTTYGVHWVRQSPGKGLEWLGVIWGGGRTDYDAAFISRLSISKDNSKSQVFFKMNSLQANDTAIYYCVRNRHDWFDYWGQGTTVTVSS
VL: DIQMTQSPSSLSASLGDRVTITCSASQGIRNSLNWYQQKPDGAVKLLIYYSSNLHSGVPSRFSGSGSGTDFSLTISNLEPEDIATYYCQQSIKLPFTFGSGTKLEIK
notes: Mouse monoclonal antibody; also called murine MAb CM03
Kd [42]: 1.63 nM
